Results on ten molecules are retold here after patent US20160297884A1 (Pfizer, published 2016).

The target of one assay is T1, Human BCMA (human, UniProt Q02223 1-54, limits assumed).
T1 construct: Soluble analyte in SPR; construct not described; also called huBCMA; B-cell maturation antigen
T1 sequence (looked up): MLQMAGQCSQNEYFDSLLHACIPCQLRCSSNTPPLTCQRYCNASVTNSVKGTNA
Briefly: SPR, IgG immobilised, 37 C. Summed up:
(§1)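 Kinetic titration: huBCMA/cyBCMA 0.08–50 nM (5-fold steps), 2 min association per step, 2 h dissociation after top dose; HBS-T+ + 1 mg/mL BSA, 25 or 37° C; double-referenced, fit 1:1 Langmuir with mass transport.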
A general note: Surface plasmon resonance follows binding to a sensor surface in real time, without labels.

The target in a further assay is T2, cynomolgus monkey BCMA (cynomolgus monkey, UniProt A0A2K5UD97 1-53).
T2 construct: Soluble analyte in SPR; construct not described; also called cyBCMA; Cyno BCMA
The experiment in a line: SPR, IgG immobilised, 37 C. Summed up: as §1

T2 sequence (A0A2K5UD97 entry or part of it): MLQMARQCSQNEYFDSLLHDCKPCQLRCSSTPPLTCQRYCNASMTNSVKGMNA

B1: L3.PY/H3.TAQ (antibody, V domains shown)
VH: EVQLLESGGGLVQPGGSLRLSCAASGFTFGSYAMTWVRQAPGKGLEWVSAISGSGGNTFYADSVKGRFTISRDNSKNTLYLQMNSLRAEDTAVYYCTRVSPIAAQMDYWGQGTLVTVSS
VL: EIVLTQSPGTLSLSPGERATLSCRASQSVSSSYLAWYQQKPGQAPRLLIYGASSRATGIPDRFSGSGSGTDFTLTISRLEPEDFAVYYCQHYPYPPSFTFGQGTKVEIK
notes: IgG
In the case of B1, in the assay with Human BCMA, the affinity, expressed as Kd, was 0.37 nM; the “T ½” value amounted to 10.1 min; the koff came out at 0.00114 s⁻¹; the on-rate (kon) turned out to be 3.08e+06 M⁻¹ s⁻¹. Also, in the assay with cynomolgus monkey BCMA, the Kd was 1.7 nM, the “T ½” value amounted to 2.64 min, the koff was 0.00437 s⁻¹ and the kon was 2.57e+06 M⁻¹ s⁻¹.

B2: L3.PY/H3.YA (antibody, V domains shown)
VH: EVQLLESGGGLVQPGGSLRLSCAASGFTFGSYAMTWVRQAPGKGLEWVSAISGSGGNTFYADSVKGRFTISRDNSKNTLYLQMNSLRAEDTAVYYCARVSPIYAGMDYWGQGTLVTVSS
VL: EIVLTQSPGTLSLSPGERATLSCRASQSVSSSYLAWYQQKPGQAPRLLIYGASSRATGIPDRFSGSGSGTDFTLTISRLEPEDFAVYYCQHYPYPPSFTFGQGTKVEIK
notes: IgG
As for B2, in the assay with Human BCMA, the Kd worked out at 0.37 nM, the “T ½” value is 9.82 min, the off-rate constant (koff) came to 0.00118 s⁻¹ and the kon worked out at 3.15e+06 M⁻¹ s⁻¹. Besides, in the assay with cynomolgus monkey BCMA, the Kd came to 1.88 nM, the “T ½” value was determined as 2.14 min, the koff was 0.0054 s⁻¹ and the kon turned out to be 2.87e+06 M⁻¹ s⁻¹.

B3: L3.PY/L1.AH/H3.AQ (antibody, V domains shown)
VH: EVQLLESGGGLVQPGGSLRLSCAASGFTFGSYAMTWVRQAPGKGLEWVSAISGSGGNTFYADSVKGRFTISRDNSKNTLYLQMNSLRAEDTAVYYCARVSPIAAQMDYWGQGTLVTVSS
VL: EIVLTQSPGTLSLSPGERATLSCRASQSVSAHYLAWYQQKPGQAPRLLIYGASSRATGIPDRFSGSGSGTDFTLTISRLEPEDFAVYYCQHYPYPPSFTFGQGTKVEIK
notes: IgG
For the molecule B3, in the assay with Human BCMA, the dissociation constant (Kd) was 0.65 nM, the “T ½” value was found to be 5.85 min, the koff came out at 0.00197 s⁻¹ and the kon turned out to be 3.03e+06 M⁻¹ s⁻¹. Moreover, in the assay with cynomolgus monkey BCMA, binding was put at a Kd of 1.78 nM, the “T ½” value turned out to be 2.9 min, the dissociation rate constant (koff) worked out at 0.00399 s⁻¹ and the association rate constant (kon) was 2.24e+06 M⁻¹ s⁻¹.

B4: L3.PY/L1.AH/H2.QR (antibody, V domains shown)
VH: EVQLLESGGGLVQPGGSLRLSCAASGFTFGSYAMTWVRQAPGKGLEWVSAISGSGGNTFYADQRKGRFTISRDNSKNTLYLQMNSLRAEDTAVYYCARVSPIASGMDYWGQGTLVTVSS
VL: EIVLTQSPGTLSLSPGERATLSCRASQSVSAHYLAWYQQKPGQAPRLLIYGASSRATGIPDRFSGSGSGTDFTLTISRLEPEDFAVYYCQHYPYPPSFTFGQGTKVEIK
notes: IgG
Regarding B4, in the assay with Human BCMA, the dissociation constant (Kd) was 0.58 nM, the “T ½” value came to 6.39 min, the koff came to 0.00181 s⁻¹ and the on-rate constant (kon) came to 3.13e+06 M⁻¹ s⁻¹. Moreover, in the assay with cynomolgus monkey BCMA, the Kd came out at 2.23 nM, the “T ½” value worked out at 2.35 min, the koff is 0.00491 s⁻¹ and the kon was 2.2e+06 M⁻¹ s⁻¹.

B5: L3.PY/L1.AH/H3.AE (antibody, V domains shown)
VH: EVQLLESGGGLVQPGGSLRLSCAASGFTFGSYAMTWVRQAPGKGLEWVSAISGSGGNTFYADSVKGRFTISRDNSKNTLYLQMNSLRAEDTAVYYCARVSPIAAEMDYWGQGTLVTVSS
VL: EIVLTQSPGTLSLSPGERATLSCRASQSVSAHYLAWYQQKPGQAPRLLIYGASSRATGIPDRFSGSGSGTDFTLTISRLEPEDFAVYYCQHYPYPPSFTFGQGTKVEIK
notes: IgG
Regarding B5, in the assay with Human BCMA, binding was characterised by a dissociation constant (Kd) of 0.52 nM, the “T ½” value was 6.7 min, the koff was 0.00173 s⁻¹ and the on-rate constant (kon) amounted to 3.32e+06 M⁻¹ s⁻¹. In the assay with cynomolgus monkey BCMA, binding was characterised by a dissociation constant (Kd) of 1.58 nM, the “T ½” value turned out to be 3.25 min, the off-rate (koff) amounted to 0.00356 s⁻¹ and the on-rate (kon) worked out at 2.25e+06 M⁻¹ s⁻¹.

B6: L3.PY/L1.AH/H2.HA (antibody, V domains shown)
VH: EVQLLESGGGLVQPGGSLRLSCAASGFTFGSYAMTWVRQAPGKGLEWVSAISHAGGNTFYADSVKGRFTISRDNSKNTLYLQMNSLRAEDTAVYYCARVSPIASGMDYWGQGTLVTVSS
VL: EIVLTQSPGTLSLSPGERATLSCRASQSVSAHYLAWYQQKPGQAPRLLIYGASSRATGIPDRFSGSGSGTDFTLTISRLEPEDFAVYYCQHYPYPPSFTFGQGTKVEIK
notes: IgG
With B6, in the assay with Human BCMA, binding was put at a Kd of 0.54 nM, the “T ½” value is 6.37 min, the koff was found to be 0.00181 s⁻¹ and the kon stood at 3.33e+06 M⁻¹ s⁻¹. Besides, in the assay with cynomolgus monkey BCMA, the Kd came out at 1.7 nM, the “T ½” value was found to be 2.63 min, the dissociation rate constant (koff) came to 0.00439 s⁻¹ and the kon turned out to be 2.58e+06 M⁻¹ s⁻¹.

B7: L3.PY/L1.AH/H2.YQ (antibody, V domains shown)
VH: EVQLLESGGGLVQPGGSLRLSCAASGFTFGSYAMTWVRQAPGKGLEWVSAISYQGGNTFYADSVKGRFTISRDNSKNTLYLQMNSLRAEDTAVYYCARVSPIASGMDYWGQGTLVTVSS
VL: EIVLTQSPGTLSLSPGERATLSCRASQSVSAHYLAWYQQKPGQAPRLLIYGASSRATGIPDRFSGSGSGTDFTLTISRLEPEDFAVYYCQHYPYPPSFTFGQGTKVEIK
notes: IgG
On to B7, for which, in the assay with Human BCMA, the affinity, expressed as Kd, was 0.8 nM; the “T ½” value came to 6 min; the koff was found to be 0.00193 s⁻¹; the on-rate (kon) came out at 2.42e+06 M⁻¹ s⁻¹. In the assay with cynomolgus monkey BCMA, the equilibrium dissociation constant (Kd) was 2.74 nM, the “T ½” value was 2.68 min, the koff is 0.00431 s⁻¹ and the association rate constant (kon) worked out at 1.58e+06 M⁻¹ s⁻¹.

B8: L3.PY/L1.AH/H2.LT (antibody, V domains shown)
VH: EVQLLESGGGLVQPGGSLRLSCAASGFTFGSYAMTWVRQAPGKGLEWVSAISLTGGNTFYADSVKGRFTISRDNSKNTLYLQMNSLRAEDTAVYYCARVSPIASGMDYWGQGTLVTVSS
VL: EIVLTQSPGTLSLSPGERATLSCRASQSVSAHYLAWYQQKPGQAPRLLIYGASSRATGIPDRFSGSGSGTDFTLTISRLEPEDFAVYYCQHYPYPPSFTFGQGTKVEIK
notes: IgG
As for B8, in the assay with Human BCMA, binding was characterised by a dissociation constant (Kd) of 0.39 nM, the “T ½” value amounted to 9.38 min, the off-rate constant (koff) was found to be 0.00123 s⁻¹ and the kon was found to be 3.16e+06 M⁻¹ s⁻¹. In addition, in the assay with cynomolgus monkey BCMA, the Kd worked out at 1.35 nM, the “T ½” value stood at 3.91 min, the dissociation rate constant (koff) came to 0.00296 s⁻¹ and the kon is 2.19e+06 M⁻¹ s⁻¹.

B9: L3.PY/L1.AH/H2.QL (antibody, V domains shown)
VH: EVQLLESGGGLVQPGGSLRLSCAASGFTFGSYAMTWVRQAPGKGLEWVSAISGSGGNTFYADQLKGRFTISRDNSKNTLYLQMNSLRAEDTAVYYCARVSPIASGMDYWGQGTLVTVSS
VL: EIVLTQSPGTLSLSPGERATLSCRASQSVSAHYLAWYQQKPGQAPRLLIYGASSRATGIPDRFSGSGSGTDFTLTISRLEPEDFAVYYCQHYPYPPSFTFGQGTKVEIK
notes: IgG
For B9, in the assay with Human BCMA, the dissociation constant Kd stood at 0.53 nM, the “T ½” value was 7.22 min, the off-rate constant (koff) amounted to 0.0016 s⁻¹ and the kon came to 3.04e+06 M⁻¹ s⁻¹. In the assay with cynomolgus monkey BCMA, the Kd was 3.65 nM, the “T ½” value was found to be 1.21 min, the koff was 0.00955 s⁻¹ and the kon was determined as 2.62e+06 M⁻¹ s⁻¹.

B10: L3.PY/L1.AH/H2.DY (antibody, V domains shown)
VH: EVQLLESGGGLVQPGGSLRLSCAASGFTFGSYAMTWVRQAPGKGLEWVSAIDYSGGNTFYADSVKGRFTISRDNSKNTLYLQMNSLRAEDTAVYYCARVSPIASGMDYWGQGTLVTVSS
VL: EIVLTQSPGTLSLSPGERATLSCRASQSVSAHYLAWYQQKPGQAPRLLIYGASSRATGIPDRFSGSGSGTDFTLTISRLEPEDFAVYYCQHYPYPPSFTFGQGTKVEIK
notes: IgG
With B10, in the assay with Human BCMA, binding was put at a Kd of 0.5 nM, the “T ½” value was found to be 7.62 min, the koff is 0.00152 s⁻¹ and the association rate constant (kon) came out at 3.05e+06 M⁻¹ s⁻¹. For the same molecule, in the assay with cynomolgus monkey BCMA, the Kd was 1.95 nM, the “T ½” value amounted to 2.56 min, the koff was determined as 0.00451 s⁻¹ and the association rate constant (kon) turned out to be 2.32e+06 M⁻¹ s⁻¹.

The Kd is a measure of binding affinity in units of concentration. Usually koff stands for the first-order rate constant of dissociation. What is called kon is a measure of how fast the partners come together.
